Laboratory results from the supplement of paper PMC10126150.
± gives the standard deviation of the averaged measurements.

test system: ATP; test: switch fluorescence ratio, 500 uM ATP over buffer (Cy3 cluster intensity, sum of 5 cycles each) (fold (ratio)); higher = stronger signal-on switching upon ATP binding; sequences stand for … in TCGTCGGCAGCGTCAGATGTGTATAAGAGACAGTTTTTTTTTTTTTTTTTTTTTTTTT…TC; details: aptamer strand: ATP DNA aptamer (quencher-CACCTGGGGGAGTATTGCGGAGGAAGG + anchor), 100 nM annealed; ATP concentration: 500 uM
Method in brief: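 Per cluster, summed Cy3 intensity from the target cycles was divided by that from the buffer cycles to give the fluorescence ratio, then averaged per switch-domain sequence. Clusters outside 100-1000 RFU were excluded. The Cy3-labelled switching-strand clusters, on a modified Illumina MiSeq flow-cell, were annealed to 100 nM quencher-labelled ATP aptamer and imaged in selection buffer, then after 15 min with 500 uM ATP at 22 °C, for five cycles with NaOH stripping and re-annealing between them.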
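Further: ATP exposure 15 min at 22 °C before imaging.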

Sequence	switch fluorescence ratio
ATAGTGTGTG	1.004 ± 0.008
ATAGTTAGGT	1.03 ± 0.029
ATAGTTGGTG	0.994 ± 0.029
ATAGTTGTGA	0.987 ± 0.024
ATATAAAATG	0.986 ± 0.0046
ATATAAAGGA	1.01 ± 0.024
ATATAAATGT	1.019 ± 0.0066
ATATAAATTA	1.01 ± 0.05
ATATAAGGGA	1 ± 0.019
ATATAAGGGC	1 ± 0.074
ATATACATGG	1.01 ± 0.035
ATATACTAGA	1.03 ± 0.049
ATATAGAAAG	1.02 ± 0.045
ATATAGTAAT	0.9842 ± 0.0078
ATATATAAGT	0.972 ± 0.011
ATATATACTG	1.05 ± 0.071
ATATATGCGG	1.11 ± 0.12
ATATATGCTC	1.01 ± 0.016
ATATATTGTA	1.001 ± 0.0059
ATATATTTTG	0.972 ± 0.03
ATATCAGCAT	1.065 ± 0.005
ATATCGACGT	1 ± 0.013
ATATCTAAGT	0.9984 ± 0.0034
ATATCTTAGT	1.017 ± 0.00089
ATATCTTTCG	1.02 ± 0.014

Sequence	switch fluorescence ratio
ATATGACGGT	0.98 ± 0.029
ATATGAGGCG	1.05 ± 0.042
ATATGAGTGC	0.951 ± 0.07
ATATGGATGG	0.986 ± 0.025
ATATGGGGGC	0.972 ± 0.059
ATATGGGTTT	1.01 ± 0.033
ATATGGTCAT	0.9719 ± 0.0021
ATATGTGATG	0.997 ± 0.021
ATATGTGGGC	0.9577 ± 0.0068
ATATTAAAAG	0.9959 ± 0.0043
ATATTAAGTT	1.01 ± 0.003
ATATTACTAG	0.989 ± 0.035
ATATTAGAAC	1.01 ± 0.0027
ATATTAGAGG	0.998 ± 0.037
ATATTAGGGT	1.01 ± 0.042
ATATTAGTCT	1.001 ± 0.0035
ATATTATGGA	1 ± 0.02
ATATTATTCT	1.005 ± 0.0096
ATATTATTGA	0.9818 ± 0.0049
ATATTCAGGG	1.01 ± 0.031
ATATTCGCTC	1.12 ± 0.1
ATATTCTTGG	0.9852 ± 0.0026
ATATTGCCTA	1.003 ± 0.0074
ATATTGTCGT	1.011 ± 0.0053
ATATTGTTGT	0.997 ± 0.057

Sequence	switch fluorescence ratio
ATATTGTTTG	1.01 ± 0.1
ATATTTATAG	0.9944 ± 0.0071
ATATTTCACT	1.03 ± 0.012
ATATTTGACA	1.01 ± 0.026
ATATTTGGGG	1.02 ± 0.046
ATATTTGGTT	0.985 ± 0.034
ATATTTTAAG	0.994 ± 0.034
ATCAAAGGTT	1.03 ± 0.051
ATCAAGGGGG	0.992 ± 0.034
ATCAAGGGTG	1.11 ± 0.013
ATCAAGGTTC	0.9917 ± 0.0095
ATCAAGTCTT	0.99 ± 0.016
ATCAATATGT	0.996 ± 0.029
ATCAATTGTC	1.07 ± 0.025
ATCACCGCGC	1.59 ± 0.093
ATCACTGGGC	1.1 ± 0.092
ATCACTGGGT	0.9976 ± 0.0051
ATCAGATGAT	1.0009 ± 0.00017
ATCAGCTGTG	1.02 ± 0.024
ATCAGGAAGT	0.992 ± 0.062
ATCAGGCGGA	1 ± 0.045
ATCAGGGTGG	0.987 ± 0.032
ATCAGGGTTT	1.005 ± 0.0057
ATCAGTAAAA	1.01 ± 0.035
ATCAGTGATG	1 ± 0.046

Sequence	switch fluorescence ratio
ATCAGTGGTT	0.974 ± 0.013
ATCAGTGTGG	0.967 ± 0.038
ATCATACCGG	1 ± 0.035
ATCATACGGA	1.034 ± 0.0088
ATCATATGGA	0.985 ± 0.037
ATCATCGCTA	1.094 ± 0.0084
ATCATCGGGA	1.01 ± 0.013
ATCATGACTG	1.015 ± 0.005
ATCATGAGTC	0.972 ± 0.03
ATCATGCTGT	0.9976 ± 0.0017
ATCATGGGGT	0.984 ± 0.041
ATCATGGGTA	0.9757 ± 0.0069
ATCATGTGCA	0.9627 ± 0.0073
ATCATGTGGG	0.999 ± 0.018
ATCATGTGTA	1.01 ± 0.04
ATCATTGAGA	0.9972 ± 0.0043
ATCATTGGG	1.014 ± 0.008
ATCATTTGGG	0.997 ± 0.039
ATCATTTTTA	1.01 ± 0.02
ATCATTTTTG	1 ± 0.025
ATCCCAGGGT	1.89 ± 0.076
ATCCGAACGG	1.03 ± 0.048
ATCCGCGATT	4.88 ± 1.1
ATCCGCGGTG	1.18 ± 0.075
ATCCGGGCGC	1.08 ± 0.1

Sequence	switch fluorescence ratio
ATCCGTATGT	1.05 ± 0.014
ATCCTAGGGC	1.007 ± 0.0095
ATCCTCTTGC	1.09 ± 0.036
ATCCTTAAGG	0.961 ± 0.026
ATCCTTCTAA	1.05 ± 0.018
ATCCTTGATA	1.03 ± 0.016
ATCGAAAGGG	1.01 ± 0.054
ATCGAAGGCA	0.9862 ± 0.008
ATCGAATAGG	0.9872 ± 0.0022
ATCGAATCCT	1.09 ± 0.012
ATCGAATTTT	1 ± 0.061
ATCGAGCCGG	0.98 ± 0.049
ATCGAGTCTA	0.953 ± 0.017
ATCGAGTGCT	0.952 ± 0.016
ATCGAGTTAG	0.978 ± 0.012
ATCGCATTG	1.24 ± 0.34
ATCGCCAGGC	1.014 ± 0.0044
ATCGCCGGGG	1.02 ± 0.045
ATCGCGGGGT	0.979 ± 0.025
ATCGCTGGGT	1.01 ± 0.019
ATCGGAGCGG	1.02 ± 0.031
ATCGGAGGGA	0.986 ± 0.028
ATCGGATTAT	0.969 ± 0.047
ATCGGATTGG	1.03 ± 0.072
ATCGGCCATG	0.988 ± 0.011

Sequence	switch fluorescence ratio
ATCGGCTGTG	0.983 ± 0.022
ATCGGGAGGT	1.04 ± 0.061
ATCGGGCGTA	1.01 ± 0.044
ATCGGGGTC	0.983 ± 0.027
ATCGGGGTCA	1.01 ± 0.027
ATCGGGGTTG	0.958 ± 0.017
ATCGGGTTTG	0.977 ± 0.03
ATCGGTAACT	1.01 ± 0.032
ATCGGTAGGT	0.99 ± 0.019
ATCGGTCAGC	0.982 ± 0.022
ATCGGTGAAG	0.9925 ± 0.0058
ATCGGTTCGG	0.9934 ± 0.0053
ATCGTAATGG	1.04 ± 0.038
ATCGTACGGC	1.01 ± 0.026
ATCGTATTCA	1.01 ± 0.027
ATCGTGATCC	1.016 ± 0.0094
ATCGTGGGGA	1.012 ± 0.0075
ATCGTGTGGT	0.9829 ± 0.0092
ATCGTTAAGC	1.03 ± 0.022
ATCGTTCAAT	0.9983 ± 0.0046
ATCGTTTACG	0.994 ± 0.036
ATCGTTTGCA	1.02 ± 0.022
ATCTAATAGG	0.959 ± 0.018
ATCTAGATTG	0.982 ± 0.042
ATCTATATAG	0.9945 ± 0.0068

Sequence	switch fluorescence ratio
ATCTATGTTT	0.9872 ± 0.0041
ATCTCAATTT	0.967 ± 0.027
ATCTCTGGTT	0.966 ± 0.031
ATCTGAATGG	1.12 ± 0.17
ATCTGCTCTT	1.01 ± 0.04
ATCTGCTTGA	0.974 ± 0.042
ATCTGGGGTT	1.04 ± 0.015
ATCTGGGTAG	1.01 ± 0.03
ATCTGTATGT	0.968 ± 0.017
ATCTGTGAAC	1.05 ± 0.073
ATCTGTGGGG	0.9962 ± 0.0026
ATCTTAGTAA	0.9998 ± 0.0099
ATCTTAGTTA	0.999 ± 0.026
ATCTTATTTG	1.01 ± 0.033
ATCTTGCGGA	1.02 ± 0.05
ATCTTGGCTG	0.983 ± 0.03
ATCTTTCGAA	1.03 ± 0.026
ATGAAAAAAA	0.976 ± 0.12
ATGAAAACGG	1 ± 0.051
ATGAAAAGTT	0.993 ± 0.011
ATGAAAATTA	0.975 ± 0.025
ATGAAAGCGT	1.032 ± 0.01
ATGAAATAAA	0.9835 ± 0.0022
ATGAAATGTT	1.011 ± 0.0053
ATGAACTCAG	1.03 ± 0.037

Sequence	switch fluorescence ratio
ATGAAGAGAT	0.9886 ± 0.0064
ATGAAGGAGC	0.9917 ± 0.0046
ATGAAGGGTT	1 ± 0.029
ATGAATACAA	1.01 ± 0.014
ATGAATGAAC	1.03 ± 0.063
ATGAATTCTC	1.01 ± 0.078
ATGAATTGTT	0.974 ± 0.02
ATGAATTTTA	1 ± 0.031
ATGACCGATT	1.02 ± 0.049
ATGACCTCTT	0.985 ± 0.034
ATGACCTGGG	0.9769 ± 0.0049
ATGACTAAGA	1.006 ± 0.0034
ATGACTGATA	1.028 ± 0.0038
ATGACTTATT	0.968 ± 0.027
ATGAGAAAAG	0.991 ± 0.0095
ATGAGACAGA	0.999 ± 0.049
ATGAGATTTT	0.988 ± 0.015
ATGAGCTGAG	1.01 ± 0.035
ATGAGGGACT	0.9594 ± 0.0036
ATGAGGGG	1.01 ± 0.043
ATGAGGGGGA	0.997 ± 0.026
ATGAGGGGGT	1.03 ± 0.024
ATGAGGGGTA	1.01 ± 0.026
ATGAGGGTTG	1.04 ± 0.013
ATGAGGGTTT	1.01 ± 0.017
